Source: the DeepSol protein solubility set

Test: soluble on expression in E. coli; label from the status in PepcDB or PDB records

Sequence | soluble on expression in E. coli
MSLDNGEAAIIIGEFYKRNDQWKFRALSEGSAYGLSAFGRKIGLEVDDRHPRRPSGGSGGPAGGPRHESATGTAFVVGPAHVMTCAHVIEDMGVFYINSLEGRYKAEAVVIDRRNDIALLRVQGAPPLSAVTFREGQGCEPGDTVAVLGYPLASISGGGLQVTQGGISGLFGLHNDASLFQFTAPIQPGSSGSPLFDNGGAVIGMVTSTVPDGQNMNFAVKSALLMSFLQACRIDEGHHHHHH | not soluble
MSLDNQLRPTLHYQAQNPHRRVLVTGATGYIGGRLITELLAAGFQVRATSRKKTSLQRFDWYEDVEAVEADLTDATELDTLFKDVDVVYYLVHSMGGKNVDFEEQEQRTAENVIQAADQAGIKQIVYLSGLHPRNRKIEELSKHMRSREKVAQILLAGQTPALILRAATIIGSGSASFEIIRHLTERLPRMIAPQWITNQIEPLAIRDVLHYLISAADLKDPVNRSCDIGCGKSYEFADLLRIYADVRGLKRHVNSVPLNLPMDKLSGLWISLVTPVPFQLSFPLAQSMAEDAVTEEHSIKDIISDPPDGFIEYREAVELALAAEFDRGVPTSWDRSWTVQQPWAGQPTDPEWAGKAVYEDVRTEDTDLRAAQVWPIIEGLGGVNGWYSAPLLWRLRGIADRLIGGPGLGGRRDPRHLKLGDRIDWWRVTEIDPPHRLVLTAEMKVDGGAWLILEVADKENGGCTYTQRAIFEPKGEGHHHHHH | soluble
MSLDQTVSNNFKMIYIASCGEGINAFHLVESTLVQFPDSDITVVKVPHIRTESQVDHLLDRVKDVESLIAHTIVEPNLRQYLVTKAEEHKIVTIDLMGQVLNKIETFLSIRPLGKPGLYRETHQVDLKQVTAIDFALAHDDGLRPESLDEAEIILVGLSRAGKTPLSMYMGVMGWKVANIPYVPGVPMPQTLDEVDRRRVIALNINIEQLLSHRKMRQESLGTSDMHAYSRRQEVEVEVQTAQKYYITKGFSMIDVSNKPIETSAEEIAEMITRRFKAQAHLKDEGHHHHHH | soluble
MSLDRPRCCLRGKECCINRFQQVESRWGYSGTSDRIRFTVNRRISIVGFGLYGSIHGPTDYQVNMQIIEYEKKQTLGQNDTGFSCDGTANTFRVMFKEPIEILPNVCYTACATLKGPDSHYGTKGLKKVVHETPAASKTVFFFFSSPGNNNGTSIEDGQIPEIIFYTEGHHHHHH | soluble
MSLDSKLIFFDIDGTIYDHDKNIPESTRKTVAELQRQGHHVFIASGRSPFLVKPILEELGIHSFISYNGQFVVFENQVIYKNPLPENAIRRLLKQADEGKHPVVFMAEDTMKATVADHPHVLEGIGSLKTDYPETDDLFYEGKEIFQLLLFCQDEEEKAYAAFPEFDLVRWHELSTDVLPHGGSKAEGIKKVIERLPFDIGDTYAFGDGLNDLQMIEYVGTGVAMGNAVPELKEIADFVTKPVDEDGIAYAVKELGLLKEGHHHHHH | soluble
MSLDSNSQSRSSSASSIGSESETGNAVVVFGYREAITKQILAYFAQFGEILEDLESELGDTETMRTPGYFFQQAPNRRRISREHGRTWTKLTYANHSSYLRALREHGTIYCGAAIGCVPYKHELISELSRDTYNSMNDVKQTNSISTNQLTQHNQSEVPKSNQTFETKPTNETERNQIKTPSAFGSDNKGNGSISSGRTKRRLSIKDGSSLFLSGTDNIFSTLDGQPTKKRMINRDRSLIGKISGWLFGWNDLEGHHHHHH | soluble
MSLDTSAPQKYRRILLKVSGEVLMGDTPYGIDTNTVQSVAEDVAEIVKSGVELCLVIGGGNIFRGMAGAAKGMERSSADYMGMLATVMNALAMQDALERIGVETRVQSAIPMATVCEPYIRRRAQRHLEKGRVVIFAAGTGNPFFTTDTAAALRAAEMQCDALFKGTSVDGVYTADPKKDPTAQRYDRLSYMDVLAKDLRVMDASAVALMRDSNIPIVVFSIKGRGNLLTVLRGEGTHTVVAEDEGHHHHHH | soluble
MSLEAGAGAPLARYAAWRRAGDFIFLSGIIPVNPLTGTIVNGFQDVPEPVRELLGATGEFSTDAKQGPILAQSWYVLESIRRTVASAGGQMSDVIKLVQYFRNLDHFPYYSRVRKLFYPDQPPVSTVVQVSEMLPDATVLIEVEATVWLPPSFNSEAEGHHHHHH | soluble
MSLEALLSEDVKIIASALKAAIDKDRKSTSKREAETGIRYYNHENDIMNNRIFYVDDEGVLREDKYASNVRIPHGFFPEIVDQKTQYLLSNPVEYETENEELKEYLAEYYNSEFQVVLQELVEGSSQKGFEYVYARTNAEDRLCFQVADSLNVFGVYNEYNELQRICRHYITEIEKDGETVDIHHAEVWTDQNVYFFVAEDNKDYELDEAEPINPRPHVLAVDSDNESLLQRSYGQIPFYRLSNNKQETTDLKSIKALIDDYDLMNCFLSNNLQDFAEAIYVVSGFQGDDLSKLRQNVKSKKVVGTGSDGGLDVKTVTIPTEGRKTKMEIDKENIYKFGMAFDSTQVGDGNITNIVIKARYTLLNMKANKTEARLRALLEWMNKLVIDDINRRYTKAFDPTEVSFTFTREVMVNETDIVNNEKTEAETRKIILESILQVAPRLDDDNVLRLICEQFDLDWEDVKEALEEAEYTQGLTDNTDEEETAVTPNVPTQQMAEGATGSTESQLPGEGHHHHHH | not soluble
MSLEELSLYTLRHVLERSAVLYADQPSLSQLGCEPLTFRDLHDHAEHLALWLRDNGVGTGDRVALLAENSPNWGIAYFAITGMGAIAVPILPEFHADAVQHILRHSEAKAVFVSERLFPKLEEGEGIADSLMCISMETFQSIAQGTTRDMLRELKSKGLREFRKLRDKAKRLANMADAAPAEDDVAAIIYTSGTTGHSKGVVLTHRNIVWDADAVKSIVKLGPGDRMLSILPLSHTYECTLGLVLPVLNGAHVHYMDKPPTARALLPAMAQVRPTAMLSVPLVIEKIFKTALLPKLTGSWLKQRLYAIPFVRRKLHALAGRKLLESFGGALRIFCIGGAGIAPDVERFLREANFPYAIGYGLTETAPLVAGSGPASTRLTSTGFTLDGVDIAIDAPDPATGEGEIIVRGPNVMREYYKAPQITASAFTPEGWFRTGDLGKFDADGYLYIKGRLKNVIIGPSGENIYPEEVEAIIHQSPFVLESLVFQQDGRLVARIHLDAARLDESFGDLPALKQREKIDALLETLRNEVNTKVSTFARLAKVIEQTEPFEKTPTHKIKRYLYVEQEGHHHHHH | soluble
MSLEEWIKADSLEKADEYHKRYNYAVTNPVRRKILRMLDKGRSEEEIMQTLSLSKKQLDYHLKVLEAGFCIERVGERWVVTDAGKIVDKIRG | soluble
MSLEKESEWKGPFYFILGADPQFGLIKAWSTGDCDNGGDEWEQEIRLTEQAVQAINELNPKPKFFVLCGDLIHAMPGKPWRTEQTEDLKRVLRAVDRAIPLVLVSGNHDIGNTPTAETVEEFCRTWGDDYFSFWVGGVLFLVLNSQFYENPSKCPSLKQAQDQWLDEQLSIARQRHCQHAIVFQHIPLFLESIDEDDDYYFNLSKSTRKELADKFIHAGVRVVFSGHYHRNAGGTYQNLDMVVSSAIGCQLGRDPHGLRVVVVTAEKIVHRYYSLDELSEKGIEDDLMDLEGHHHHHH | not soluble
MSLEKKVLATVGNTEITSDYIDEIIARYPAQQQAMLASDEGKRQVLEQAIAFELMSEFAKETGLDKTEEFKDQLNKFAKELLAQMVMKKTLSSVTVTDDEAKAFYEEHKENFVELETVTAKHILVASEEEAKKVEEEIASGSITFEDAANKYSSCPSKEQGGNLGSFSKGMMVPEFEEAAFNLELGVVSAPVKTQFGYHLIKVEDKTEAKTKAFEDVKEQVVNMLIQERQQKKYLELIKELREKYGVKLAEGHHHHHH | soluble
MSLEKLNLICVDDQREVLSAVLQDLEPLNKWLNIEDCESADEVLELMDELDADGEMIALIISDHVMPGKTGVELLTEISKDSRFVRTRKVLLTGQATHTDTINAINSAGIDRYFEKPWQANQLIECVRNLVTQYIFDEGHHHHHH | not soluble
MSLEKSYWEQAHLQLPLKYTWKISRNASTEKINVIVFLCIDGRTYPGEAAPNVRYGESVELIDLQFKHFQTVWKDSLLQDEHAYNDVLDGLKLCQSLRFALESAYVHARCDKDPAFFERYTGIKMHTSPLATSYTLPIMDPGQIQEFIQTHDLTRFDTLKIKTGKEESKELIKTASRYFDKMIRVDANEAWTDPDLLIKELEELKRIPLEFIEQPFESAQKDAYKYFKKYSKIPVIADESITFAPDLKEIKELFHGVNMKLMKAGGYREGANILLKSKELGLKTMVGCMVETTLGIRSGMWISGHSDYIDLDGSFVIDNEPFKLVSENLGRLVIKQVNFFIEKWQKEGHHHHHH | soluble
MSLELNFSQTLGNHCLTINETLPANGITAIFGVSGAGKTSLINAISGLTRPQKGRIVLNGRVLNDAEKGICLTPEKRRVGYVFQDARLFPHYKVRGNLRYGMSKSMVDQFDKLVALLGIEPLLDRLPGSLSGGEKQRVAIGRALLTAPELLLLDEPLASLDIPRKRELLPYLQRLTREINIPMLYVSHSLDEILHLADRVMVLENGQVKAFGALEEVWGSSVMNPWLPKEQQSSILKVTVLEHHPHYAMTALALGDQHLWVNKLGEPLQAALRIRIQASDVSLVLQPPQQTSIRNVLRAKVVNSYDDNGQVEVELEVGGKTLWARISPWARDELAIKPGLWLYAQIKSVSITEGHHHHHH | soluble
MSLENLQTNFSLVQGSTKKLNGMGDDGSPPAKKMITDIHVNGKTINKVPTVKKEHLDDYGEAPVETDGEHVKRTCTSVPETLHLNPSLKHTLAQFHLSSQSSLGGPAAFSARHSQESMSPTVFLPLPSPQVLPGPLLIPSDSSTELTQTVLEGESISCFQVGGEKRLCLPQVLNSVLREFTLQQINTVCDELYIYCSRCTSDQLHILKVLGILPFNAPSCGLITLTDAQRLCNALLRPRTFPQNGSVLPAKSSLAQLKETGSAFEVEHECLGKCQGLFAPQFYVQPDAPCIQCLECCGMFAPQTFVMHSHRSPDKRTCHWGFESAKWHCYLHVNQKYLGTPEEKKLKIILEEMKEKFSMREGHHHHHH | not soluble
MSLEQMLWDAACSIRGEKDAAKFKDYLLPLLFLKRLSDVFDDEIERLAEEYGDRATALEIAESDHSLLRFYLPPEARWAVISGRESFDWPLDDRGRPTAPRDIGEHLTKAVRAVVKQNPTLSGVIDVVDFAAERNGERDINPAKLRGVVETFSDPRYRLGLADVQPDFLGRAYEYLLRKFAEGSGQSAGEFFTPTEVGFLMAHILRPKPGETCHDYACGSAGLLIKLQLVARELDPTSRVPLKLSGQELQAESYAVAQMNAIIHDMEVELARGDTMINPKFREASGKIRGHDIVVANPMWNQPFAADLFANDPFDRFRTAGGITSGKGDWAWLQHTLACMNDHGRAAVVLDTGAVTRGSGSKNEDKERTIRKWFVEQDLIDGVILLPENLFYNTTAAGVIVVLSRRKPAARKGKIVLLNASRRFKKGRPKNYLPEEDIRPLAAMYLKGEPVEGELAVITTEQAREADYNLSPSRWVGQNGDAEIGSIPNLLRALEQLNEEDASLTSGLLQLLRPLAKTGDAEGHHHHHH | soluble
MSLERIRDLTSVQGVRQNSLIGYGLVVGLDGTGDQTTQTPFTTQTLNNMLSQLGITVPTGTNMQLKNVAAVMVTASLPPFGRQGQTIDVVVSSMGNAKSLRGGTLLMTPLKGVDSQVYALAQGNILVGGAGASAGGSSVQVNQLNGGRITNGAVIERELPSQFGVGNTLNLQLNDEDFSMAQQIADTINRVRGYGSATALDARTIQVRVPSGNSSQVRFLADIQNMQVNVTPQDAKVVINSRTGSVVMNREVTLDSCAIAQGNLSVTVNRQANVSQPDTPFGGGQTVVTPQTQIDLRQSGGSLQSVRSSASLNNVVRALNALGATPMDLMSILQSMQSAGCLRAKLEIIEGHHHHHH | soluble
MSLERKRVLVKFSGEALAGENGFGIENSILKFIASEIKELIKNQIEVGIVIGGGNIIRGVSAAKGGLIKRTSGDHMGMLATVINAIAIQEALESSGLEVRVQSAIQMEAFCETYIMRRAQRHLEKGRVVVFAAGTGNPYFTTDTTAILRAVEIDADMVIKATKVNGVYDKDPKQFDDAVFLNTLSYDEAMQDNIKVMDDTAIALAKDNKLPIVVCNMFEEGNLLKIIQGDTSLCSTVKNNEGHHHHHH | soluble
